In US20130115212A1 (LUNDBECK A S, published 2013):
Where no end group is shown, it is not given here.

Experiments:
[1] = biological target: SorLA extracellular domain (immobilized on the Biacore chip) (Homo sapiens) (UniProt Q92673); assay: SPR, GFRα1 over immobilized SorLA extracellular domain
[2] = biological target: SorLA extracellular domain (immobilized on the Biacore chip) (Homo sapiens) (UniProt Q92673); assay: SPR (Biacore), SorLA immobilized; series of 20, 50, 100 and 200 nM
[3] = biological target: SorLA extracellular domain (immobilized on the Biacore chip) (Homo sapiens) (UniProt Q92673); assay: SPR, immobilized SorLA
[4] = biological target: SorLA expressed on cells (stably transfected HEK293 cells; SY5Y neuroblastoma cells, endogenous or overexpressed) (Homo sapiens) (UniProt Q92673); assay: FRET on non-permeabilized fixed cells, SorLA acceptor, GFRα1 donor
[5] = biological target: T1, SorLA extracellular domain (immobilized on the Biacore chip) (Homo sapiens, UniProt Q92673 82-2137); assay: SPR, immobilized SorLA
T1 construct: also called immobilized SorLA; LR11

[6] = biological target: T1, SorLA extracellular domain (immobilized …); assay: SPR (Biacore), SorLA immobilized; GST fusion protein, concentration not given
Source text: (A) fusion proteins between GST and the GDNF propeptide (GDNFpropep), the N-terminal 38 amino acids of mature GDNF (GDNFN-term), or the GDNF propeptide followed by the first 38 amino acids of mature GDNF (GDNFN-term propep) binding to immobilized SorLA. GST alone is included as negative control. (B) a peptide encompassing the first 38 amino acids of mature GDNF binds to SorLA in concentration-dependent manner.

[7] = biological target: T1, SorLA extracellular domain (immobilized …); assay: SPR, GDNF over immobilized SorLA; lower end of the range
Protocol: (§1) (A) The domain structure of SorLA is depicted. (B) GDNF binds to immobilized SorLA in a concentration-dependent manner as shown by SPR. […] (C) SorLA binding is selective for GDNF and not the other GDNF family ligands, artemin, neuturin, and persephin. The neurotrophic factor concentrations used are 20 nM. (D) The interaction is mediated by the mature part of GDNF and not the GDNF propeptide (GDNFpro). Sensorgrams of 100 nM ligand concentration are shown. […] (G-H) Internalization of 50 nM GDNF by 293 cells or 293 cells stably expressing SorLA. Internalized GDNF (green) was visualized by immunofluorescense. (I) GDNF internalization was inhibited by excess neurotensin (NT, 20 μM).

[8] = biological target: T1, SorLA extracellular domain (immobilized …); assay: SPR, GDNF over immobilized SorLA; upper end of the range
Protocol: as §1

[9] = biological target: T1, SorLA extracellular domain (immobilized …); assay: SPR, immobilized SorLA (title of Fig. 17)
[10] = biological target: T1, SorLA extracellular domain (immobilized …); assay: SPR (Biacore), SorLA immobilized; SorLApro 10 uM by the legend, injected before GDNF in the inhibition experiment
Protocol: as §1

T1 sequence (Q92673 82-2137 limits assumed): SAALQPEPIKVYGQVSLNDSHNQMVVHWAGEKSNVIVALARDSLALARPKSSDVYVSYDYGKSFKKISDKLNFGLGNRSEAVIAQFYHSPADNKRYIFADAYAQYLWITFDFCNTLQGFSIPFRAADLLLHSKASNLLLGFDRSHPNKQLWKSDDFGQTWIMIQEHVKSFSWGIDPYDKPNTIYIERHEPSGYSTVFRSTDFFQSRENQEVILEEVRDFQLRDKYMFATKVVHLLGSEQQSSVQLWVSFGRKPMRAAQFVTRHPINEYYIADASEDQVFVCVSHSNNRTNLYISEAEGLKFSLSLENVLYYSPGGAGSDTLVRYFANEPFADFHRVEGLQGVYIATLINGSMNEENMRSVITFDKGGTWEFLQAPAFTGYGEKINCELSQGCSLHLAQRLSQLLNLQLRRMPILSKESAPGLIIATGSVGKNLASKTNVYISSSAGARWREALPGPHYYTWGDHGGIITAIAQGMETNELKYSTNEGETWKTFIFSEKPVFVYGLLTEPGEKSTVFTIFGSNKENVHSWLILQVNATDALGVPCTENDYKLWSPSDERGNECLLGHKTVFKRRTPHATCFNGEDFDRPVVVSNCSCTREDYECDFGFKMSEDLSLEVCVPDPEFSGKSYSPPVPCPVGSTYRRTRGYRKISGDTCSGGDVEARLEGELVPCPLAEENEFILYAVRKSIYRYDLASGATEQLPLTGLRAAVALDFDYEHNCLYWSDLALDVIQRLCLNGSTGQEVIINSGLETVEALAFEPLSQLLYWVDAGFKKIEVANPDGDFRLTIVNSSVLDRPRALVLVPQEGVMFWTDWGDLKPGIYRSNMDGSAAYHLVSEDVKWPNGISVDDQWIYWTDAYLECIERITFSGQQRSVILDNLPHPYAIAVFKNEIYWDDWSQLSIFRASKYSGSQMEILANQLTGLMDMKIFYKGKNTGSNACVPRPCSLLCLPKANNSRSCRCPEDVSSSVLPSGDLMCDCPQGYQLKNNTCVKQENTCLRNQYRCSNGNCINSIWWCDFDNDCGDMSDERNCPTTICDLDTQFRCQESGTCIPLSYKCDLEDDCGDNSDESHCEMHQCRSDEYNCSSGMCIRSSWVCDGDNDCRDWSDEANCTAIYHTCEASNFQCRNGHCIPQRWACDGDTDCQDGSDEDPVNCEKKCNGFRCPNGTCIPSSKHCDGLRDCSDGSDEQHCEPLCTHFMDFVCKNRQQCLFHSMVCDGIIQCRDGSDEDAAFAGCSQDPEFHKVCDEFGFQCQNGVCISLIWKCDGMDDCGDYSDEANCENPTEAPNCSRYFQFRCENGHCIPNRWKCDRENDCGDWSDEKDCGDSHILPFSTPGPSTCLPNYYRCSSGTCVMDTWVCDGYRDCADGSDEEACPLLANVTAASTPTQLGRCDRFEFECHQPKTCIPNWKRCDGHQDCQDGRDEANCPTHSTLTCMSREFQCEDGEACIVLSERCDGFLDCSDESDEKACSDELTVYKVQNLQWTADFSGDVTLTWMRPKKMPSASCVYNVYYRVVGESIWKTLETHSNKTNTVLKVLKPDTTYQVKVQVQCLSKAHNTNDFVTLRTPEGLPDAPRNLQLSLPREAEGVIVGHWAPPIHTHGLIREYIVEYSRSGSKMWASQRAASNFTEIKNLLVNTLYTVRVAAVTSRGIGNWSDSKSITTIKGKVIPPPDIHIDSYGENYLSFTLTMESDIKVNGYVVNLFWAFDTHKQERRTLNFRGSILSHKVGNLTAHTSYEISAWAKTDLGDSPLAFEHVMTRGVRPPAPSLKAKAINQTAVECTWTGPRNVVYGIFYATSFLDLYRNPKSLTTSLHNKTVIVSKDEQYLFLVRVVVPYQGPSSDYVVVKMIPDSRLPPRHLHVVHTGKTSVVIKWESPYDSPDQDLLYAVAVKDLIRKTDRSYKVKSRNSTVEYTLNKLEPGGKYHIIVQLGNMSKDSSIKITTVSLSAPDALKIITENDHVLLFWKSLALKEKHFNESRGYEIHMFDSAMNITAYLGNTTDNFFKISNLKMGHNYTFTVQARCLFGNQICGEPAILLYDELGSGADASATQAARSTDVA
SorLA extracellular domain (immobilized on the Biacore chip) (Homo sapiens), sequence (Q92673 82-2137 limits assumed): as above
SorLA expressed on cells (stably transfected HEK293 cells; SY5Y neuroblastoma cells, endogenous or overexpressed) (Homo sapiens), sequence (Q92673 82-2214 limits assumed): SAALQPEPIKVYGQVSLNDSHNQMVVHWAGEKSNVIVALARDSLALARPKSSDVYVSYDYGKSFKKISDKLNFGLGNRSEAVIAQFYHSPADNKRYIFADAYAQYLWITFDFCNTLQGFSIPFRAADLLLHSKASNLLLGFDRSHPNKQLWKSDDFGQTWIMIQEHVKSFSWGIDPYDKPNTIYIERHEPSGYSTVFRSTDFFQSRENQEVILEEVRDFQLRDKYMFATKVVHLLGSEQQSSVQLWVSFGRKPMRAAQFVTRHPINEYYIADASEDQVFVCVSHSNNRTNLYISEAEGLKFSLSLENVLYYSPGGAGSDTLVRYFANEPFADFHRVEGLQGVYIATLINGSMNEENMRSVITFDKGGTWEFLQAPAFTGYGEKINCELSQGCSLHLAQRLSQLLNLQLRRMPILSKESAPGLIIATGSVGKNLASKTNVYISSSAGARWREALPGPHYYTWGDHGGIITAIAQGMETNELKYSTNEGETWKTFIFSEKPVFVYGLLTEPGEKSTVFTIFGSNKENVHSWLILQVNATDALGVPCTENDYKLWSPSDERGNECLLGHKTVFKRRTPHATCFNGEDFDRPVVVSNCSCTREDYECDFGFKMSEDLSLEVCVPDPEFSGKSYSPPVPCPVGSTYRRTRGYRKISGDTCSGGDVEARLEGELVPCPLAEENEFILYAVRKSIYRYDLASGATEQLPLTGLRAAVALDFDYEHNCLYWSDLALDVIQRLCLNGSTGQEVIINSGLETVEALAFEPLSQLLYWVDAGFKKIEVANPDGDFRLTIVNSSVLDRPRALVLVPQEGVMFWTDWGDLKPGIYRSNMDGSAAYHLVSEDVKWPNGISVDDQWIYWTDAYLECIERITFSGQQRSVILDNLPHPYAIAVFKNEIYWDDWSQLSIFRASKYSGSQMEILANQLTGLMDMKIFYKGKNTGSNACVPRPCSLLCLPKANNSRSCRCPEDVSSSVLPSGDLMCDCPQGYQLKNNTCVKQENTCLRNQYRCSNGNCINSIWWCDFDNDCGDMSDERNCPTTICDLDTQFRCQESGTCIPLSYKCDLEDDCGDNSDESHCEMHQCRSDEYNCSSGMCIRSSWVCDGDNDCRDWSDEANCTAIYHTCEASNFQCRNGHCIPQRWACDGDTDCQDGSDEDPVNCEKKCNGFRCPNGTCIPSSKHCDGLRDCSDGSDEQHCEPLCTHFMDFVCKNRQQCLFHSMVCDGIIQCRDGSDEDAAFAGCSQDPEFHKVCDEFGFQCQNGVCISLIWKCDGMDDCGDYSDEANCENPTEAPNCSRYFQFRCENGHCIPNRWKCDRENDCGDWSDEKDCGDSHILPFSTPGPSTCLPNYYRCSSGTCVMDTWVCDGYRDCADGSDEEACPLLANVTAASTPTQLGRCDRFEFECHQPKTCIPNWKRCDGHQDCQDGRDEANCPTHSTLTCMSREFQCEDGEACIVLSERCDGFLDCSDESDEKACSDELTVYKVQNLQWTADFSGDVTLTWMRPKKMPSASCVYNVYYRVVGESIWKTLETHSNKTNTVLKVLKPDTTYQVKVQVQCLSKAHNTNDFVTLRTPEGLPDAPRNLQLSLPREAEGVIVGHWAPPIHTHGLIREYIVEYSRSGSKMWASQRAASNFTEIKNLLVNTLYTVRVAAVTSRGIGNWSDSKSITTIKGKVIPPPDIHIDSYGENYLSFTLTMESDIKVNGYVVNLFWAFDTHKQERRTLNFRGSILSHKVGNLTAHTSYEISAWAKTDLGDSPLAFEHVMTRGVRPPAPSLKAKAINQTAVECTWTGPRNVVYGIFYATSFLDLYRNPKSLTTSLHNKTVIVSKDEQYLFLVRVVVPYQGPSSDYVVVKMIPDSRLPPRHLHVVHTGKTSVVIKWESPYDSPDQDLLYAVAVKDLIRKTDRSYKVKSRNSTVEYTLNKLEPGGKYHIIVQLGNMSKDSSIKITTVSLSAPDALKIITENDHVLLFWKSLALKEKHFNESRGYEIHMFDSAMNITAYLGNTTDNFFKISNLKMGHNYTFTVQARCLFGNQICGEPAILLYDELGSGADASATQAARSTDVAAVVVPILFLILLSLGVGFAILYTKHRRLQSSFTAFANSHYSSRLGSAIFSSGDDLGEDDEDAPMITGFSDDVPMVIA

In the case of “soluble full length GFRα1 (from UniProt P56159 25-429) (receptor)”, the Kd [1] is reported as 6 nM, the Kd [2] is reported as 10 nM and the Kd [3] is reported as 12 nM.

“GFRα1 expressed on cells (stably transfected HEK293 cells) (from UniProt P56159 25-429) (receptor)” was tested, and the mean Eapp% [4] was 16%.

“N-terminal truncated soluble GFRα1 variant lacking domain 1 (from UniProt P56159 145-429) (receptor)” was tested, and the Kd [3] was 120 nM.

B1: persephin (ligand, UniProt O60542 61-156, looked up)
chain: ALSGPCQLWSLTLSVAELGLGYASEEKVIFRYCAGSCPRGARTQHGLALARLQGQGRAHGGPCCRPTRYTDVAFLDDRHRWQRLPQLSAAACGCGG
notes: also called PSPN
B1: no binding (tested: 20 nM) [5].

B2: GDNFN-term propep (other, not shown: a dimerising Fc or GST; large carriers; small tags and cut ends)
chain: FPLPAGKRPPEAPAEDRSLGRRRAPFALSSDSNMPEDYPDQFDDVMDFIQATIKRLKRSPDKQMAVLPRRERNRQAAAANPENSRGKGRRGQRGKN
notes: also called GST fusion of the GDNF propeptide followed by the first 38 amino acids of mature GDNF
B2: binds [6].

B3: GDNFpropep (other)
fusion protein: FPLPAGKRPPEAPAEDRSLGRRRAPFALSSDSNMPEDYPDQFDDVMDFIQATIKRLKR
notes: also called GST fusion of the GDNF propeptide
B3: no binding [6].

B4: GDNF propeptide (peptide)
peptide: FPLPAGKRPPEAPAEDRSLGRRRAPFALSSDSNMPEDYPDQFDDVMDFIQATIKRLKR
B4: no binding (tested: 100 nM) [5].

B5: Glia cell-derived neurotrophic factor (GDNF) (ligand)
chain: SPDKQMAVLPRRERNRQAAAANPENSRGKGRRGQRGKNRGCVLTAIHLNVTDLGLGYETKEELIFRYCSGSCDAAETTYDKILKNLSRNRRLVSDKVGQACCRPIAFDDDLSFLDDNLVYHILRKHSAKRCGCI
notes: also called mature GDNF
In the case of B5, the Kd [7] is reported as ≥ 3 nM and the Kd [8] is reported as ≤ 8 nM.

B6: GDNFN-term (other)
chain: SPDKQMAVLPRRERNRQAAAANPENSRGKGRRGQRGKN
modifications: also: GST fusion partner (letters not given here)
notes: also called GST fusion of the N-terminal 38 amino acids of mature GDNF; not shown: GST fusion partner and any linker to it
B6: binds [6].

B7: peptide encompassing the first 38 amino acids of mature GDNF (peptide)
peptide: SPDKQMAVLPRRERNRQAAAANPENSRGKGRRGQRGKN
notes: also called N-terminal 38 amino acids of mature GDNF
B7: binds [9].

B8: artemin (ligand, UniProt Q5T4W7 108-220, looked up)
chain: AGGPGSRARAAGARGCRLRSQLVPVRALGLGHRSDELVRFRFCSGSCRRARSPHDLSLASLLGAGALRPPPGSRPVSQPCCRPTRYEAVSFMDVNSTWRTVDRLSATACGCLG
notes: also called ARTN
B8: no binding (tested: 20 nM) [5].

B9: SorLA propeptide (peptide)
peptide: EVWTQRLHGGSAPLPQDRGFLVVQGDPRELRLWARGDARGASRADEKPLRRKR
B9: binds [10].

B10: neuturin (neurturin) (ligand, UniProt Q99748 96-197, looked up)
chain: ARLGARPCGLRELEVRVSELGLGYASDETVLFRYCAGACEAAARVYDLGLRRLRQRRRLRRERVRAQPCCRPTAYEDEVSFLDAHSRYHTVHELSARECACV
notes: also called NRTN
B10: no binding (tested: 20 nM) [5].
